Laboratory results taken from US20210038737A1 (OHIO STATE INNOVATION FOUNDATION, published 2021).
Primed or numbered codes have the meaning given here. [ ]: non-standard residue; d: D form. 1Nal = N[C@@H](Cc1cccc2ccccc12)C(=O)O; 2Nal = N[C@@H](Cc1ccc2ccccc2c1)C(=O)O; FITC′ = fluorescein isothiocyanate; Cha = N[C@@H](CC1CCCCC1)C(=O)O; Tle = CC(C)(C)[C@H](N)C(=O)O

B1: peptide 6: FITC-Cys-Arg-Arg-Arg-Phe-Trp-Gln-Cys-Thr-Arg-Tle-OH (peptide)
peptide: {FITC′}-CRRRFWQCTR[Tle]-OH
modifications: not fully specified; printed as FITC-Cys-Arg-Arg-Arg-Phe-Trp-Gln-Cys-Thr-Arg-Tle-OH; cysteine pairing not given here
notes: Synthetic labeled peptide; assayed with 2 mM TCEP (reduced, linear); also called Compd 6; Compound 6
B2: peptide 15: Ac-Cys-Arg-Arg-Arg-Phe-(2-Nal)-Gln-Cys-Thr-Arg-Tle-OH (peptide)
peptide: Ac-CRRRF[2Nal]QCTR[Tle]-OH
modifications: cysteine pairing not given here
notes: Synthetic peptide; assayed with DTT (reduced, linear); also called Compd 15; Compound 15
B3: peptide 14: Ac-Cys-Arg-Arg-Arg-Phe-(1-Nal)-Gln-Cys-Thr-Arg-Tle-OH (peptide)
peptide: Ac-CRRRF[1Nal]QCTR[Tle]-OH
modifications: cysteine pairing not given here
notes: Synthetic peptide; assayed with DTT (reduced, linear); also called Compd 14; Compound 14
B4: peptide 12: Ac-Arg-Arg-Phe-Trp-(D-Cys)-Cys-Thr-Arg-Tle-OH (peptide)
peptide: Ac-RRFW[dC]CTR[Tle]-OH
modifications: cysteine pairing not given here
notes: Synthetic peptide; also called Compd 12; Compound 12
B5: peptide 11: Ac-Arg-Arg-Phe-Trp-(D-Pro)-Cys-Thr-Arg-Tle-OH (peptide)
peptide: Ac-RRFW[dP]CTR[Tle]-OH
SMILES: CC(=O)N[C@@H](CCCNC(=N)N)C(=O)N[C@@H](CCCNC(=N)N)C(=O)N[C@@H](Cc1ccccc1)C(=O)N[C@@H](Cc1c[nH]c2ccccc12)C(=O)N1CCC[C@@H]1C(=O)N[C@@H](CS)C(=O)N[C@H](C(=O)N[C@@H](CCCNC(=N)N)C(=O)N[C@H](C(=O)O)C(C)(C)C)[C@@H](C)O
notes: Synthetic peptide; also called Compd 11; Compound 11
B6: peptide 3: Ac-Arg-Arg-Phe-Trp-Gln-Cys-Thr-Arg-Cha-OH (peptide)
peptide: Ac-RRFWQCTR[Cha]-OH
SMILES: CC(=O)N[C@@H](CCCNC(=N)N)C(=O)N[C@@H](CCCNC(=N)N)C(=O)N[C@@H](Cc1ccccc1)C(=O)N[C@@H](Cc1c[nH]c2ccccc12)C(=O)N[C@@H](CCC(N)=O)C(=O)N[C@@H](CS)C(=O)N[C@H](C(=O)N[C@@H](CCCNC(=N)N)C(=O)N[C@@H](CC1CCCCC1)C(=O)O)[C@@H](C)O
notes: Synthetic peptide; also called Compd 3; Compound 3
B7: peptide 13: Ac-Arg-Arg-Phe-Trp-Cys-Cys-Thr-Arg-Tle-OH (peptide)
peptide: Ac-RRFWCCTR[Tle]-OH
modifications: cysteine pairing not given here
notes: Synthetic peptide; also called Compd 13; Compound 13
B8: peptide 7: Ac-Arg-Arg-Phe-Trp-Gln-Cys-Thr-Leu-Tle-OH (peptide)
peptide: Ac-RRFWQCTL[Tle]-OH
modifications: not fully specified; printed as Ac-Arg-Arg-Phe-Trp-Gln-Cys-Thr-Leu-Tle-OH
notes: Synthetic peptide; also called Compd 7; Compound 7
B9: peptide 2: Ac-Arg-Arg-Phe-Trp-Gln-Cys-Thr-Arg-Ile-OH (peptide)
peptide: Ac-RRFWQCTRI-OH
notes: Synthetic peptide; also called Compd 2; Compound 2

What follows are binders tested against T1, CAL PDZ domain (CALP5-His) (UniProt Q9HD26 288-371) (assay: direct FP, condition C: 50 nM labeled peptide, CALP5-His titrated).
Procedure: Condition C (denoted with superscript ^c): 50 nM labeled peptide was incubated with 2 mM TCEP in PBS at pH 7.4 containing 0.01% Triton-X100. CALP5-His was serially diluted in PBS containing 0.01% Triton-X100 to which was then added the peptide and TCEP solution. This solution was mixed for 1 h at RT then 20 uL was pipetted into 384-well microplates and fluorescence polarization was measured using a TECAN Infinite M1000 plate reader. KD values were calculated using KaleidaGraph v. 3.6 using the equation: […]
A Kd of 0.996 µM was found for B1 in this work.

Each binder was assayed against T1, CAL PDZ domain (CALP5-His) (assay: FP competition, condition B: probe FAM-…-OH (100 nM) with 500 nM CALP5-His; competitor titrated).
Procedure: Serial dilutions of each competitor peptide were prepared in PBS and the incubation solution was added to each. The combined solutions were gently mixed for 1 h at RT after which 20 uL sample was pipetted into 384-well black-on-black microplates and fluorescence polarization was measured using a TECAN Infinite M1000 plate reader. Data was processed to determine IC₅₀ using GraphPad PRISM ver. 6.0.
An IC50 of 1.49 µM was found for B2 in this work.
An IC50 of 1.77 µM was found for B3 in this work.

The binders below were run against T1, CAL PDZ domain (CALP5-His) (assay: FP competition, condition A: probe peptide 26 (50 nM) with 100 nM CALP5-His; competitor titrated).
An IC50 of 10.3 µM was found for B4 in this work.
An IC50 of 7.39 µM was found for B5 in this work.
An IC50 of 7.88 µM was found for B6 in this work.
An IC50 of 8.01 µM was found for B7 in this work.
An IC50 of 2.02 µM was found for B8 in this work.
An IC50 of 3.69 µM was found for B9 in this work.
